The experiment deals with hSgt2 M233D (Homo sapiens) (UniProt O43765). In words: pull-down.
UniProt O43765, sequence (O43765 213-313 M233D): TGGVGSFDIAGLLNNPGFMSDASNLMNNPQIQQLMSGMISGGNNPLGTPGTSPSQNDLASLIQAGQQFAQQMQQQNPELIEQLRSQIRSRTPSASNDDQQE

B1: MBP-Sbh1 full length (natural protein)
chain: MSSPTPPGGQRTLQKRKQGSSQKVAASAPKKNTNSNNSILKIYSDEATGLRVDPLVVLFLAVGFIFSVVALHVISKVAGKLF
In turn, B1 displayed a percent reduction of binding against wild type of 36%.

These data come from publication doi:10.1101/517573.
